The record followed here is publication PMC5438440.

This test deals with human μ receptor (human) (UniProt P35372).
Sequence of UniProt P35372 (P35372 whole entry): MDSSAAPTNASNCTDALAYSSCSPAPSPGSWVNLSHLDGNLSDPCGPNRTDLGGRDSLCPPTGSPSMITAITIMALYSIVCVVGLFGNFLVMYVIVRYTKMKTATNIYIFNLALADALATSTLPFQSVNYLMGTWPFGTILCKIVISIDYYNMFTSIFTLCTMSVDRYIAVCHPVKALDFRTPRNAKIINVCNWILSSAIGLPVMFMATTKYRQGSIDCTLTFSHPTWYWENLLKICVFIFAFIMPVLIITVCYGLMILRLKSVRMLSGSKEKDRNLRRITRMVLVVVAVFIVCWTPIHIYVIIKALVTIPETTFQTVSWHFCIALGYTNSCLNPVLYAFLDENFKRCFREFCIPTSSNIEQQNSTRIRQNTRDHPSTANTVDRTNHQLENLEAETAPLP

As to DAMGO (peptide), the EC50 of the FRET signal increase (cAMP decrease) of the Epac sensor H187 in single HEK293 cells co-expressing μR, increasing concentrations of DAMGO, no forskolin pre-treatment came out at 0.091 nM.
